Results as given in the supplement of paper PMC9170038.

What was measured:
MS2 coat protein [1] = experiment: apparent KD of MS2 coat protein, switch ON state; designed switch direction (-1 OFF switch, 1 ON switch): -1; higher = weaker reporter binding; conditions: FMN input: 0 or 200 uM; Eterna round: R93 (includes R88 designs)
Method in brief: (§1)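 Apparent KD is reported per design as the median of normalised binding-curve fits across its clusters. The RNA switches were made by on-chip transcription from Illumina sequencing clusters. SNAP-549-labelled MS2 coat protein was then added in twofold steps (0.7 or 1.5 nM to 3 µM; 0.8–1.5 h to 10–20 min per step) in 100 mM Tris-HCl pH 7.5, 80 mM KCl, 4 mM MgCl2, without or with constant ligand.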

MS2 coat protein [2] = experiment: apparent KD of MS2 coat protein, switch OFF state (with FMN for OFF switches, without FMN for ON switches); designed switch direction (-1 OFF switch, 1 ON switch): -1; higher = weaker reporter binding; conditions: FMN input: 0 or 200 uM; Eterna round: R93 (includes R88 designs)
Method in brief: as §1

MS2 coat protein [3] = experiment: apparent KD of MS2 coat protein; designed switch direction (-1 OFF switch, 1 ON switch): 1; higher = weaker reporter binding
Method in brief: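 Each step of the titration lasted 0.8–1.5 h at the lowest concentration and 10–20 min at the highest. The protein, SNAP-549-labelled MS2 coat protein, went from 0.7 or 1.5 nM doubling to 3 µM over RNA switches transcribed on Illumina chips by stalled E. coli RNA polymerase. Normalised cluster fluorescence was curve-fitted, and the per-design median over clusters is given as apparent KD.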

[4] = Eterna round: R95, input ligand: FMN 200 uM
[5] = Eterna round: R95, input ligand: microRNA oligo, concentration not stated
[6] = Eterna round: R95, input ligand: none
[7] = input ligand: microRNA oligo, concentration not stated

| Sequence | apparent KD of MS2 coat protein (MS2 coat protein [1]) | apparent KD of MS2 coat protein (MS2 coat protein [2]) | also measured |
| --- | --- | --- | --- |
| GUGUACAGAGGAUAUACAUGAGCUAGGAAACUAGCAGGAUCACAUGAGGAUCACCCAUGUAGAAGGCUGUACAC [Ex2: 731] | 42.5 nM | 15.5 nM | – |
| CCCAUGUCAGGAUAUCAGUAGUAAAAAAAAAAAAUUACUACUGAGAAGGGACAUGAGGAUCACCCAUGUACCUU [EX4 319: Super Stable 19] | 72.1 nM | 68.1 nM | – |
| AGGAAACAUGAGGAUCACCCAUGUGAGGAUAUCAGAAAGAAAAGAAAAGAAAGAAGAAUGAGAAGGCACAAGAA [Hotepsekhemwy] | 26 nM | 40.8 nM | – |
| AGAAUACAUGAGGAUCACCCAUGUGAGGAUAUGUAGAUAAAAAUAAAAUAAAAUAAAUACAGAAGGCGCAAAAG [EX 1 May 20] | 44.5 nM | 44.9 nM | – |
| AACUGACAUGAGGAUCACCCAUGUCAGGAUAUGCAUCUUAGGAAAAAAAAACUAAGAUGCAGAAGGGACAUGGA [Design 4: Super Stable 4] | 23.9 nM | 46.2 nM | – |
| AAAUGUCUAGGAUAUACAUGAGGAUCACCCAUGUGUAAAAAUAAAUACACAAAAGAAAGUAGAAGGAGACAAAG [Mat - Exclusion 3 - Mayanna mod - D121] | 21.6 nM | 59.9 nM | – |
| AAACGUUGAGGAUAUACGAAAAAGGGUAGGUCAAAAAAAACACAUGAGGAUCACCCAUGUAGAAGGCAACGAAA [Similarities v.1 (13nt loop FMN+)] | 71.4 nM | 45.1 nM | – |
| AGAAAACAUGAGGAUCACCCAUGUAAGGAUAUGCUAAGGGUGGCUUCGGCCACCCAAUGCAGAAGGUACAAAUA [Excalibur] | 20.5 nM | 40.7 nM | – |
| AAAUCGGCAGGAUAUACAUGAAAAUUAAAAAAAAAAAAAAAACAUGAGGAUCACCCAUGUAGAAGGGUCAAAAA [Exclusion 2 - Omei 3] | 77.9 nM | 75.2 nM | – |
| AAAAAGUGAGGAUAUACAUGAGGAUCACCCAUGUGUAUAAAAAAUUACACAAAAGCAUGUAGAAGGCACUAAAA [JL In the Red] | 37 nM | 143 nM | – |
| UACGUAUGAGGAUAUACAAACAGAAAAAUCAGACAUAACUGACAUGAGGAUCACCCAUGUAGAAGGCAUAUACA [JR_Exc002_Sub904] | 25.3 nM | 17.4 nM | – |
| ACGAAACAUGAGGAUCACCCAUGUCAGGAUAUGAACGAAAAUAAAUAAAAAUAAAAGUUCAGAAGGGACGACGA [66%, Wbt, 24] | 39.5 nM | 53 nM | – |
| AGCACGUCAGGAUAUACGAAAAAAAAGGGUAAACUAAAGGGACAUGAGGAUCACCCAUGUAGAAGGGACAAGCA [Diamond 92] | 90.8 nM | 245 nM | – |
| AUCAUGUCAGGAUAUCGUGCAGCUACCGAAAGGUAGCUGCACGAGAAGGGACAUGAGGAUCACCCAUGUAUGAA | 27.7 nM | 24.3 nM | – |
| AUAGGCCUAGGAUAUACAUGAGGAUCACCCAUGUUAAUAAUUCAAACAUGAUAAACGUGUAGAAGGAGGAAUAA [JR_Exc003_Sub302] | 40.8 nM | 65.3 nM | – |
| AUCGAUCGAGGAUAUACAUGAGGAUCACCCAUGUAAAAAAAAAAAAAGGCCUCAGGAUGUAGAAGGCGACGCAA [JR_Exc003_Sub403] | 18.5 nM | 18.7 nM | – |
| AACAAGUGAGGAUAUGAAAAUAAAACAAACAAACAAAUAAAUCAGAAGGCACAUGAGGAUCACCCAUGUAAAAA [JR_Exc004_Sub1203] | 17.1 nM | 18.5 nM | – |
| AAAAAACAUGAGGAUCACCCAUGUGAGGAUAUGAACGAAAAUAAAUAAAAAUAAAAGUUCAGAAGGCACAAAAA [66%, Wbt, 10] | 42.2 nM | 47.9 nM | – |

| Sequence | apparent KD of MS2 coat protein (MS2 coat protein [1]) | apparent KD of MS2 coat protein (MS2 coat protein [2]) | also measured |
| --- | --- | --- | --- |
| AAGAUGUGAGGAUAUGCUUGUCGUCACAAAAGUGAUGACGAGCAGAAGGCACAUGAGGAUCACCCAUGUAAAGA [Opal 26] | 90.1 nM | 147 nM | – |
| AAAAAACAUGAGGAUCACCCAUGUAAGGAUAUGCUAAAAAACACGGAAAACGUGAAUAGCAGAAGGUACAAAAG [Mat - Exclusion 1 - Eli mod - D84] | 15.9 nM | 67.7 nM | – |
| AAUGGUGCAGGAUAUACAUGAGGAUCACCCAUGUACAUCAGACAUAUGGUCGAAACAUGUAGAAGGGCACCAAA [Ex 3May 55] | 107 nM | 336 nM | – |
| AAAAGGUGAGGAUAUAGGAAAAUAAAAGAAAAUAAAAGAAACUAGAAGGCACAUGAGGAUCACCCAUGUAAUAA [LROPPY Exclusion 4 - v03_deltaG=3.54 break up the As mixed] | 28.7 nM | 23.6 nM | – |
| AAGAGAGAAAUACAGGAUAUGAGGAAAGGAACAUGAGGAUCACCCAUGUAAGAGAAAGGGAAAGAUCAGAAGGGUAGAGAAGAGA [JR_SS2_Sub001] (puzzle: Same State 2) | – | – | apparent KD of MS2 coat protein (MS2 coat protein [3]; [4]): 76.6 nM; apparent KD of MS2 coat protein (MS2 coat protein [3]; [5]): 66.1 nM; apparent KD of MS2 coat protein (MS2 coat protein [3]; [6]): 264 nM |
| GCCGGCUGGUGAGGAUAUGGCACCUUAUUGGUGCCAGAAGGCAUGUCAAUUGACAUGAGGAUCACCCAUGUAUUAUGGUUGGCG [salish99_SSNG1_r04_606] (Eterna round: R96, puzzle: Same State NG 1) | – | – | apparent KD of MS2 coat protein (MS2 coat protein [3]; input ligand: FMN 200 uM): 567 nM; apparent KD of MS2 coat protein (MS2 coat protein [3]; [7]): 63.2 nM; apparent KD of MS2 coat protein (MS2 coat protein [3]; input ligand: none): 85.4 nM |
| GGCCAGAGUCAAGGAUAUGCUACCGUUUCGGUAGCAGAAGGUGAUCACAUGAGGAUCACCCAUGUAUACGCUGGAAAGCGGGCC [JL SSNG1 3.64] (Eterna round: R96, puzzle: Same State NG 1) | – | – | apparent KD of MS2 coat protein (MS2 coat protein [3]; input ligand: FMN 200 uM): 452 nM; apparent KD of MS2 coat protein (MS2 coat protein [3]; [7]): 480 nM; apparent KD of MS2 coat protein (MS2 coat protein [3]; input ligand: none): 1430 nM |
| UGCUUCAUGUAAGGAUAUGCAGCCGUUUCGGCUGCAGAAGGUACUAUAAUACAUGAGGAUCACCCAUGUCUCUCGCAUUGCGAG [salish99_SSng1_r04_301] (Eterna round: R96, puzzle: Same State NG 1) | – | – | apparent KD of MS2 coat protein (MS2 coat protein [3]; [7]): 111 nM |
| ACAUGAGAGAUAGGAUAUCGUGUACCUACAUGUGACAUGAGGAUCACCCAUGUGGUAAGUAUGAGCGAGAAGGAUCCGAUAUGU [salish99_SSNG2_r04_1001] (Eterna round: R96, puzzle: Same State NG 2) | – | – | apparent KD of MS2 coat protein (MS2 coat protein [3]; input ligand: FMN 200 uM): 18.6 nM; apparent KD of MS2 coat protein (MS2 coat protein [3]; [7]): 38.6 nM; apparent KD of MS2 coat protein (MS2 coat protein [3]; input ligand: none): 66.4 nM |
| UUAGCACAUGAGGAUCACCCAUGUACUAUACUCAUAGGAUAUACAAAGUCUUAAGACGUGGUAGAAGGGUGAGGAA [Zaateddi] (puzzle: Same State 1) | – | – | apparent KD of MS2 coat protein (MS2 coat protein [3]; [4]): 101 nM; apparent KD of MS2 coat protein (MS2 coat protein [3]; [5]): 106 nM; apparent KD of MS2 coat protein (MS2 coat protein [3]; [6]): 128 nM |
| AUUGCUUACGCAGGAUAUGAUGUGGAAACUGCGUCAGAAGGGUGAACAGAAUCGUUGCAAGAAGACAUGAGGAUCACCCAUGUC [SameState NG1 #97] (Eterna round: R96, puzzle: Same State NG 1) | – | – | apparent KD of MS2 coat protein (MS2 coat protein [3]; input ligand: FMN 200 uM): 42 nM; apparent KD of MS2 coat protein (MS2 coat protein [3]; [7]): 34.9 nM; apparent KD of MS2 coat protein (MS2 coat protein [3]; input ligand: none): 39 nM |
| UGUCCAGCCUGAGCUGGACAAAAGCAUGUACAUGAGGAUCACCCAUGUUCAUGUACAAGCUUUUUGCUCGUCUUAUA [salish99_208a_r3_044] (puzzle: Sensor for hsa-mir-208a) | – | – | apparent KD of MS2 coat protein (MS2 coat protein [3]; [4]): 404 nM; apparent KD of MS2 coat protein (MS2 coat protein [3]; [5]): 13.8 nM; apparent KD of MS2 coat protein (MS2 coat protein [3]; [6]): 415 nM |
| GGUAGGUUACUACCAGACAUGAGGAUCACCCAUGUAAGUGGGAAGGAUAUGGUACCGUUUCGGUACCAGAAGGUCCUAAAUGAG [JL SSNG3 1.46] (Eterna round: R96, puzzle: Same State NG 3) | – | – | apparent KD of MS2 coat protein (MS2 coat protein [3]; input ligand: FMN 200 uM): 332 nM; apparent KD of MS2 coat protein (MS2 coat protein [3]; [7]): 1650 nM; apparent KD of MS2 coat protein (MS2 coat protein [3]; input ligand: none): 1220 nM |
| ACGUGGAUAUCACAGGAUAUACUCACAACUACAUGAGGAUCACCCAUGUAGCGGUAUUCCGGUGCGUAGAAGGGUGAUGGACCAC [Same State 2 - Mod of Artece v.3] (puzzle: Same State 2) | – | – | apparent KD of MS2 coat protein (MS2 coat protein [3]; [4]): 12.1 nM; apparent KD of MS2 coat protein (MS2 coat protein [3]; [5]): 12 nM; apparent KD of MS2 coat protein (MS2 coat protein [3]; [6]): 11.4 nM |
| AGCUAGUACCGAGGAUAUACAUACAUGAGGAUCACCCAUGUAUACAUGAAUAUAUGAGACUACAUGUAGAAGGCGGUACUAGCA [Mat - Same State NG 2 - JL mod - D46] (Eterna round: R96, puzzle: Same State NG 2) | – | – | apparent KD of MS2 coat protein (MS2 coat protein [3]; input ligand: FMN 200 uM): 16.2 nM; apparent KD of MS2 coat protein (MS2 coat protein [3]; [7]): 42 nM; apparent KD of MS2 coat protein (MS2 coat protein [3]; input ligand: none): 60.5 nM |
| UGGCUGGUGCUAGGAUAUGCAUGAGGCCUCCUCGUAGAAGGAGCACGACAUGAGGAUCACCCAUGUGGCCGUCCGUGGACGGCU [salish99_SSNG1_r04_014] (Eterna round: R96, puzzle: Same State NG 1) | – | – | apparent KD of MS2 coat protein (MS2 coat protein [3]; input ligand: FMN 200 uM): 45.4 nM; apparent KD of MS2 coat protein (MS2 coat protein [3]; [7]): 44.9 nM; apparent KD of MS2 coat protein (MS2 coat protein [3]; input ligand: none): 56.1 nM |
| GUGCAACCGUGUGAGGAUAUCGGUGAUCAGACAUGAGGAUCACCCAUGUCCGAAGCUCGGAUCUCCGAGAAGGCGCACAGUUGCA [Same State 2 - Mod of Erisin v.6] (puzzle: Same State 2) | – | – | apparent KD of MS2 coat protein (MS2 coat protein [3]; [4]): 92.8 nM; apparent KD of MS2 coat protein (MS2 coat protein [3]; [5]): 232 nM; apparent KD of MS2 coat protein (MS2 coat protein [3]; [6]): 296 nM |
| CUCAAACAUGAGGAUCACCCAUGUGUUGUCGUGGGAGGAUAUCCCAGUUCGGUGGCGUCGGGAGAAGGCCUAUGUC (Eterna round: R96, puzzle: Same State 1) | – | – | apparent KD of MS2 coat protein (MS2 coat protein [3]; input ligand: FMN 200 uM): 67.8 nM; apparent KD of MS2 coat protein (MS2 coat protein [3]; [7]): 106 nM; apparent KD of MS2 coat protein (MS2 coat protein [3]; input ligand: none): 129 nM |
